Laboratory results reported in patent publication US20100266609A1 (UCB, published 2010).
One block for each binder: values may come before it.

Tests used:
[1] = biological target: T1, Recombinant IL-17A/F heterodimer (human); assay: SPR (Biacore 3000, 25°C), antibody captured by anti-mouse IgG Fc, cytokine titrated from 25 nM
T1 construct: also called human recombinant IL-17A/F heterodimer; heterodimer A/F
Protocol: All experiments were performed at 25° C.
Double referenced background subtracted binding curves were analysed using the BIAevaluation software (version 3.2) following standard procedures. Kinetic parameters were determined from the fitting algorithm.

IL-17 E = biological target: T2, IL-17 E (UniProt Q9H293 33-177, limits assumed); assay: SPR (Biacore 3000), antibody captured by anti-human IgG Fc, cytokine in solution
T2 sequence (looked up): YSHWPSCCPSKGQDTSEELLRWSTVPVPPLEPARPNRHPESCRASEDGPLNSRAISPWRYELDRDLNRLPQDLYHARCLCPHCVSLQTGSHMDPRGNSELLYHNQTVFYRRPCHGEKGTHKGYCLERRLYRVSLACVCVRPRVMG
Protocol: (§1) BIA (Biamolecular Interaction Analysis) was performed using a Biacore 3000 (Biacore AB). All experiments were performed at 25° C. Affinipure Fc Fragment goat anti-human IgG, Fc fragment specific (Jackson ImmunoResearch) was immobilised on a CM5 Sensor Chip via amine coupling chemistry to a capture level of ≈6000 response units (RUs). HSS-EP buffer (10 mM HEPES pH 7.4, 0.15 M NaCl, 3 mM EDTA, 0.005% Surfactant P20, Biacore AB) was used as the running buffer with a flow rate of 10 μl/min. […] The surface was regenerated by a 30 μL injections of 40 mM HCl, followed by one 5 μL injection of 5 mM NaOH.
(§2) Background subtraction binding curves were double referenced and analysed using the BIAevaluation software (version 3.2) following standard procedures. Kinetic parameters were determined from the fitting algorithm.

IL-17 B = biological target: T3, IL-17 B (UniProt Q9UHF5 21-180, limits assumed); assay: as above
T3 sequence (looked up): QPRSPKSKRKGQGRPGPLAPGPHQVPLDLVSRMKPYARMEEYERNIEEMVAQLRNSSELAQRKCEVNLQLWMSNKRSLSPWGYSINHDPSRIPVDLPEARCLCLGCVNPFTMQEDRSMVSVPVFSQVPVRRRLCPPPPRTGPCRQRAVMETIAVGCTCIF
Protocol: as §1, §2

IL-17 C = biological target: T4, IL-17 C (UniProt Q9P0M4 19-197, limits assumed); assay: as above
T4 sequence (looked up): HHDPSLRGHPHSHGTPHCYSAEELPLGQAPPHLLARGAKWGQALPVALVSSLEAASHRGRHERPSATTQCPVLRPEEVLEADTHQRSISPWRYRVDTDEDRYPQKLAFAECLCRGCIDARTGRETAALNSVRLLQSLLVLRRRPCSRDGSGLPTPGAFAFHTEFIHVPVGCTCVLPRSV
Protocol: as §1, §2

IL-17 D = biological target: T5, IL-17 D (UniProt Q8TAD2 18-202, limits assumed); assay: as above
T5 sequence (looked up): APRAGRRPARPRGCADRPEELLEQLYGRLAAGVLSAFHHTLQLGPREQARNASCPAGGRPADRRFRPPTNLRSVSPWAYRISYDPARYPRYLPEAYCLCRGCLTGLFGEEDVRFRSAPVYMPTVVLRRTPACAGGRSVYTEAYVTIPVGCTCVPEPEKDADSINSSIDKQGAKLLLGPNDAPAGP
Protocol: as §1, §2

T1 sequence (chain, as listed by the source limits assumed): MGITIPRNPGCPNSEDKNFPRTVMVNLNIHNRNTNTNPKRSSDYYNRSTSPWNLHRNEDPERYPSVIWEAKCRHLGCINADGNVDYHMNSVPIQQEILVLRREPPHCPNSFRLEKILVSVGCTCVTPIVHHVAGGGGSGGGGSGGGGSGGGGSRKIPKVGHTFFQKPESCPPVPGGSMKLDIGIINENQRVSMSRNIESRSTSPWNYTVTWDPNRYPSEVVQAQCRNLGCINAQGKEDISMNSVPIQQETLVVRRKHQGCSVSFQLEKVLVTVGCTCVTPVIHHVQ

- Kd [1]: 0.116 nM
B1: Antibody CA028-0496 (murine IgG1 constant regions) (antibody, V domains shown)
VH: EVQLVESGGGLVQPGGSLRLSCAASGFTFSDYNMAWVRQAPGKGLEWVATITYEGRNTYYRDSVKGRFTISRDNAKNSLYLQMNSLRAEDTAVYYCASPPQYYEGSIYRLWFAHWGQGTLVTVSS
VL: AIQLTQSPSSLSASVGDRVTITCRADESVTTLMHWYQQKPGKAPKLLIYLVSNRESGVPSRFSGSGSGTDFTLTISSLQPEDFATYYCQQTWSDPWTFGQGTKVEIKR
notes: not shown: murine IgG1 heavy chain constant region; murine light chain constant region

B2: Antibody CA028-0496 (human IgG4 constant regions) (antibody, V domains shown)
VH: B1 VH
VL: B1 VL
notes: human gamma-4 constant region with the hinge mutation S241P and human C-kappa (Km3), made in CHO cells
- binding result (IL-17 E): no binding (tested: doubling dilutions from 50 nM to sub nM)
- binding result (IL-17 B): no binding (tested: doubling dilutions from 50 nM to sub nM)
- binding result (IL-17 C): no binding (tested: doubling dilutions from 50 nM to sub nM)
- binding result (IL-17 D): no binding (tested: doubling dilutions from 50 nM to sub nM)
